{
  "source": "paper PMC9015690",
  "biological_target": "CXCL12 locked dimer (CXCL12-LD) (UniProt P48061)",
  "sequence (P48061 22-89 L57C/A86C)": "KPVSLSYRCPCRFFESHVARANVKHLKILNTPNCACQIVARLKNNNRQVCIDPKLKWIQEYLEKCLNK",
  "assay": "ITC",
  "data": [
    {"binder": "ACKR1^N-term, sixty-amino acid peptide corresponding to the extracellular N-terminus of ACKR1 (domain or fragment) MGNALHRAELSPSTENSSQLDFEDVWNSSYGVNDSFPDGDYGANLEAAAPAHSANLLDDS", "values": [
      {"measurement": "KD of the first transition (sequential binding model)", "result": 6, "unit": "nM"},
      {"measurement": "stoichiometry N", "result": 1}
    ]}
  ]
}
